Data from patent US20140079722A1, “EXTRACELLULAR TARGETED DRUG CONJUGATES” (CENTROSE, LLC, priority 2011, published 2014).

Legend:
[1] = test system: PANC-1 xenograft; assay: PANC-1 xenograft model, alone and with gemcitabine; type: in vivo, C.B-17/IcrHsd-Prkdc scid Lyst bg mice
Method: A disease model of pancreatic cancer was established by implanting 5×10^6 PANC-1 cells in 100 μL DMEM into the left flank of 7 week old female C.B-17/IcrHsd-Prkdc^scidLyst^bg mice. Mice were then treated with M53-PEG24-CEN09-106 with a drug loading of 8 and/or gemcitabine when the tumor size in groups of 3 animals averaged ˜500 mm^3. Treatments consisted of either vehicle control, M53-PEG24-CEN09-106 at 0.2, 1 and 5 mg/kg, with and without 60 mg/kg gemcitabine or 60 mg/kg gemcitabine alone and consisted of multiple injections using the M53-PEG24-CEN09-106 schedule of one injection every 7 days for 3 injections (q7d×3) administered i.v. and the gemcitabine schedule of one injection every 3 days for 5 injections (q3d×5) administered i.p. Tumor volumes were measured for each group using calibrated vernier calipers and plotted against first day of tumor implant for 28 days post-initial dose, graphed and shown in FIG. 6.

[2] = test system: primary human umbilical vein endothelial cells (HUVEC); assay: In vitro normal cell cytotoxicity; type: cell-based; settings: 72 hrs, conjugates as antibody concentration, read-out: EC50
Method: (§1) In vitro normal cell cytotoxicity. The in vitro cytotoxic activity of M53-PEG24-CEN09-106, PEG24-CEN09-106, M53-PEG24-CEN-319, PEG24-CEN-319, proscillaridin and digitoxin against dysadherin positive primary normal human cells and a dysadherin positive human non-small cell lung carcinoma (NSCLC) cell line were tested and compared. The cells used were primary human renal epithelial cells (HREpC), primary human umbilical vein endothelial cells (HUVEC), primary human umbilical artery endothelial cells (HUAEC), and the A549 NSCLC cells. The primary cells were obtained from PromoCell GmbH, Heidelberg, Germany, and the NSCLC cell line A549 was obtained from ATCC. Primary renal epithelial cells were grown in Renal Epithelial Cell Growth Medium 2 (PromoCell GmbH, Heidelberg, Germany). Primary endothelial cells were grown in Endothelial Cell Growth Medium 2 (PromoCell GmbH, Heidelberg, Germany). The NSCLC cell line was grown in RPMI-1640 (HyClone, Thermo Scientific) supplemented with 10% fetal bovine serum. HREpC, HUVEC, HUAEC, and A549 cells were plated in 384 well plates at 1250, 1875, 2500, and 1250 cells/well (respectively) and allowed to incubate for 24 hrs at 37° C., 5% CO2, and 100% humidity. Various concentrations of conjugates M53-PEG24-CEN09-106 and […] and PEG24-CEN09-106 and […] were added to the wells in a total volume of 5 uL of media and the plates were incubated for an additional 72 hrs. After 72 hrs of exposure to agent, cell viability was evaluated using the Cell Titer-Glo Luminescent Cell Viability Assay (Promega, Madison, Wis.) according to the manufacturer's instructions. Luminescence measurements were performed using a Wallac Victor^2 Model 1420-041 assay plate reader (Perkin Elmer, Gaithersburg, Md.). EC50 values for each test agent were determined using GraphPad Prism 5 software.

[3] = test system: primary human umbilical artery endothelial cells (HUAEC); assay: In vitro normal cell cytotoxicity; type: cell-based; settings: HUAEC, 72 hrs; conjugates as antibody concentration; read-out: EC50
Method: as §1

[4] = test system: Panc-1 xenografts; assay: Panc-1 subcutaneous xenograft model (tumor fragments); type: in vivo, female HRLN nu/nu mice; settings: drug loading of 7; 1, 5, 15 mg/kg iv Q3Dx7 or Q7Dx3
Method: In another study, the Panc-1 subcutaneous xenograft model was used to evaluate antitumor activity of M53-PEG24-CEN09-106 with a drug loading of 7 drugs per antibody. Subcutaneous Panc-1 xenografts were initiated in female HRLN nu/nu mice by implanting 1 mm^3 PANC-1 tumor fragments were implanted subcutaneously into the right flank, tumor growth was monitored and mice bearing tumors of 80-120 mm^3 were selected for the study. Tumor volume was measured for each group 2× per week using calibrated vernier calipers plotted against day of first dose to produce the graph shown in FIG. 7. Among the treatment groups, no toxic effects were observed (toxicity determined as >10% weight loss during study period).

[5] = Pharmacokinetics and serum stability, antibody and drug specific ELISA; type: in vivo, Balb/c mice; settings: for serum half-life of the antibody portion / serum half-life of the steroid drug portion: Balb/c mice; for serum half-life of the antibody portion: EDC drug loading of 3; for serum half-life of the steroid drug portion: drug loading of 3; for serum stability half-life of the EDC: from ratio of slopes of serum decay of drug and antibody portions
Method: The steroid drug pharmacokinetics of M53-PEG24-CEN09-106 were measured using the drug specific ELISA described below. The comparison between the two ELISA results (antibody concentrations minus drug concentrations) was used to determine the rate of drug breakdown and thus examine M53-PEG24-CEN09-106 stability.
Serum was isolated from blood samples acquired by retro-orbital blood collection at 1, 2, 4, 8, 16, 26, and 40 days post-injection. […] Plasma concentrations of the steroid drug in M53-PEG24-CEN09-106 were measured as follows. Antigen coated ELISA plates were washed (×3) with PBS pH 7, blocked 30 min with PBS pH 7 containing 1% NFDM (PBS+NFDM), and then washed (×3) with PBS, pH 7. Diluted serum samples and standard curves of M53-PEG24-CEN09-106 were prepared in the above blocking buffer and applied to coated wells, incubated 30 min at RT, and the wells were washed (×3) with PBS, pH 7. Biotinylated 25C2E3 (a monoclonal IgG1 antibody specific for the steroid portion of PEG24-CEN09-106 and conjugated to biotin [Thermo Scientific, PN 21911]) was diluted to 100 ng/mL in PBS+NFDM and added (100 uL) to each well, incubated 30 min at RT, and the wells washed (×3) with PBS, pH 7. PNPP at 1 mg/mL in 1M DEA with 50 mM MgCl2, pH 9.8 was added (100 uL per well), and the absorbance at 405 nm was determined using a Wallac Victor^2 Model 1420-041 assay plate reader (Perkin Elmer, Gaithersburg, Md.) every 5 minutes for a total of 6 reads.
For both ELISAs, absorbance values from known standards were plotted as absorbance over time, generating a linear slope for each concentration. The slopes generated were then plotted against the respective concentrations of the standards, creating a second linear plot. The absorbance values for the unknown serum samples were plotted over time, establishing a slope for unknown sample. The linear estimate from the slope versus concentration plot was then used to extrapolate concentrations for each unknown sample based on their slope.
To determine serum stability of the intact EDC (drug release from the antibody over time) in these samples, the ratio of the slopes of serum decay of the drug portion to the serum decay of the antibody portion were calculated.

B1: M53-PEG24-CEN09-106: Class 1 EDC: antibody M53 conjugated to linker-ready agent PEG24-CEN09-106 (scillarenin, 4-amino-xyloside, PEG24) (conjugate)
heavy: EVQLVESGGGLVQPKGTLKLSCAASGFSFNTHAMNWVRQAPGKSLEWVARTMSKSNNYATYYADSVKDRFIIRADDSQSMLYLQMNNLKTEDTAMYYCVRDDPKRGMDYWGQGTSVTVSSAKTTPPSVYPLAPGSAAQTNSMVTLGCLVKGYFPEPVTVTWNSGSLSSGVHTFPAVLQSDLYTLSSSVTVPSSTWPSETVTCNVAHPASSTKVDKKIE
light: GIVMSQSPSSLAVSVGEKVTMSCKPSQSLLYSRNQKIYLAWYQQKPGQSPKLLIYWASTRESGVPDRFTGSGSGTDFTLIISSVRAEDLAVYYCQQYYNYPLTFGAGTKLELKRADAAPTVSIFPPSSEQLTSGGASVVCFLNNFYPKDINVKWKIDGSERQNGVLNSWTDQDSKDSTYSMSSTLTLTKDEYERHNSYTCEATHKTSTSPIVKSFNR
- growth inhibition of the tumor ([1]; 0.2 mg/kg i.v. q7dx3 combined with 60 mg/kg gemcitabine i.p. q3dx5): 88%
- tumor response ([1]; 1 and 5 mg/kg i.v. q7dx3 combined with 60 mg/kg gemcitabine i.p. q3dx5): tumor regression
- growth inhibition of the tumor compared to vehicle ([1]; drug loading of 8, 0.2 mg/kg i.v. q7dx3, day 28 post-initial dose): 38%
- growth inhibition of the tumor compared to vehicle ([1]; drug loading of 8, 1 mg/kg i.v. q7dx3, day 28 post-initial dose): 48%
- growth inhibition of the tumor compared to vehicle ([1]; drug loading of 8, 5 mg/kg i.v. q7dx3, day 28 post-initial dose): 76%
- EC50 [2]: 30 nM
- EC50 [3]: 29 nM
- tumor response compared to vehicle group [4]: tumor reduction in a dose dependent manner
- serum half-life of the antibody portion ([5]; 1 mg/kg tail vein): 11.9 days
- serum half-life of the steroid drug portion ([5]; 1 mg/kg tail vein): 11 days
- serum stability half-life of the EDC ([5]; 1 mg/kg): 45 days
- serum half-life of the antibody portion ([5]; 10 mg/kg tail vein): 9.2 days
- serum half-life of the steroid drug portion ([5]; 10 mg/kg tail vein): 8 days
- serum stability half-life of the EDC ([5]; 10 mg/kg): 39 days
